The record followed here is paper PMC12136788.

Data set [1] deals with T1, UNK (called full-length) (UniProt Q9C0B0 30-357).
T1 sequence: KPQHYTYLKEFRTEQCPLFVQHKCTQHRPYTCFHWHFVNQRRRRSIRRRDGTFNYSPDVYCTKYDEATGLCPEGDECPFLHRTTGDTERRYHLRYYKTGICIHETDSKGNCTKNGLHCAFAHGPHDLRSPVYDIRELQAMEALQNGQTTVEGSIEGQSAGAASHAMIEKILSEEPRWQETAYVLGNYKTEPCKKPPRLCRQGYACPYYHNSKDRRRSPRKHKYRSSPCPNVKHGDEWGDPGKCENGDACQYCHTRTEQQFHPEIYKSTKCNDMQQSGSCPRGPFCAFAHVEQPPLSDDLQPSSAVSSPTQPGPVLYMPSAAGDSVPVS
Briefly: fluorescence polarization; FP: 5 nM RNA, 20 mM Hepes (pH not given), 5 mM DTT, 137.5 mM NaCl, 0.01% Triton X-100, 10 ng/ul BSA, 2 U/ml SUPERase-In; 15 min at 4 C, read at 25 C; positional. (In general: Fluorescence polarisation rises when a labelled molecule tumbles more slowly, as on binding a larger partner.)

Data set [2] deals with T1, UNK (called full-length). Briefly: fluorescence polarization; 50 nM unlabeled N16 RNA; FP: 5 nM RNA, 20 mM Hepes (pH not given), 5 mM DTT, 137.5 mM NaCl, 0.01% Triton X-100, 10 ng/ul BSA, 2 U/ml SUPERase-In; 15 min at 4 C, read at 25 C; positional.
In data set [3] the target is T2, MSI1 full-length (mouse, UniProt Q61474 1-362). Briefly: fluorescence polarization; FP: 5 nM RNA, 20 mM Hepes (pH not given), 5 mM DTT, 137.5 mM NaCl, 0.01% Triton X-100, 10 ng/ul BSA, 2 U/ml SUPERase-In; 15 min at 4 C, read at 25 C; positional.
Data set [4] has as its target MSI2 full-length (UniProt Q96DH6 1-328). The data set is described as above.
Data set [5] concerns the target MSI1 swap (mouse, UniProt Q61474 1-19+109-191+104-108+20-103+192-362, internal_change). The description is as above.
The target of data set [6] is T2, MSI1 full-length. The description is as above. The source holds these as a separate data set.
The target in data set [7] is T1, UNK (called full-length). Briefly: fluorescence polarization; 50 nM unlabeled N16 RNA; FP: 5 nM RNA, 20 mM Hepes (pH not given), 5 mM DTT, 137.5 mM NaCl, 0.01% Triton X-100, 10 ng/ul BSA, 2 U/ml SUPERase-In; 15 min at 4 C, read at 25 C; positional. This is another data set of the same source.

T2 sequence (Q61474 whole entry): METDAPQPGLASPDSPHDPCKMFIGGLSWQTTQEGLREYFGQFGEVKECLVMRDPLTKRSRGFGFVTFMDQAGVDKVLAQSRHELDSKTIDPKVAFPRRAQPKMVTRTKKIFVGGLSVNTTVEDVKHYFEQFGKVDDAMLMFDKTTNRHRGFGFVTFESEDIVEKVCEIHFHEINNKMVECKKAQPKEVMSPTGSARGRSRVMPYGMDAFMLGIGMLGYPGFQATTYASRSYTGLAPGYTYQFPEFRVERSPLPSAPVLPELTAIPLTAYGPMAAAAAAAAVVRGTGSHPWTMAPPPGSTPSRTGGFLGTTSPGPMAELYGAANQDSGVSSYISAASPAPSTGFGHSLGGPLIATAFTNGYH
MSI1 swap, sequence (Q61474 other isoform, or with tags, fused parts or gaps): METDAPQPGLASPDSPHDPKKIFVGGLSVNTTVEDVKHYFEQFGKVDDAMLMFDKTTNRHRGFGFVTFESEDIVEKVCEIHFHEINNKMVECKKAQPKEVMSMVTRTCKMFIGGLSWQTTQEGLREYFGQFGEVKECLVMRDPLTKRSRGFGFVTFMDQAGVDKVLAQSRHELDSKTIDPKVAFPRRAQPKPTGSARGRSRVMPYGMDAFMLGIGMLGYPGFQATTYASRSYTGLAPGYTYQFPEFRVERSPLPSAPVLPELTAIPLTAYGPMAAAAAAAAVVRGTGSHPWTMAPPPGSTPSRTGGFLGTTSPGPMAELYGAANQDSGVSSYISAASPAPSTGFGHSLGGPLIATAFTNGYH
MSI2 full-length, sequence (Q96DH6 whole entry): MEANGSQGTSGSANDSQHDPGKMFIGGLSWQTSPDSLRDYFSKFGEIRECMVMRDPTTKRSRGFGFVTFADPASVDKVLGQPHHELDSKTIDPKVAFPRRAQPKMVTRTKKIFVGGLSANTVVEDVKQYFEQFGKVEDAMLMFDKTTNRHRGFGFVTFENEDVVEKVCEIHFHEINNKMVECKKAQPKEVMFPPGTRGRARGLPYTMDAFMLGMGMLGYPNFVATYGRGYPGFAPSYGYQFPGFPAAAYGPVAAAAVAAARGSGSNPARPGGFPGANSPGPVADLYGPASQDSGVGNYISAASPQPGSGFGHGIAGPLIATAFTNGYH

Regarding CCCCCCCCCCCCCCCC (ssRNA) [polyC FP RNA], in data set [1], the binding result was “no binding”. As to CCCCCCAAUUAGAAAAAA (ssRNA) [CCC-UAG FP RNA], the binding signal in data set [2] was ~2 fold tighter than mono-UAG. Turning to UAGUUUAGUUUAGUU (ssRNA) [tri-UAG FP RNA], the values for the Kd in data set [3] and in data set [4] were 5 nM and 2 nM, respectively. In the case of UUAGUUAGUU (ssRNA) [dual-UAG FP RNA], the binding signal was ~1 fold vs MSI1 on dual-UAG (no observable Kd difference) in data set [5] and ~10 fold tighter than mono-UAG in data set [6]. On to CCCCCCAAUUAGUUAAUA (ssRNA) [CCC-UAG-AUA FP RNA], for which the binding signal in data set [2] was ~1 fold vs UAG-AUA (little impact of upstream C).

AAAAAUUAGUUAAUA (ssRNA) [UAG-AUA FP RNA]: the Kd in data set [7] came to 90 nM. This lies in the double-digit nanomolar range. As to AAAAAAAAUUAGAAAAAA (ssRNA) [mono-UAG FP RNA], the Kd in data set [3] was determined as 126 nM; in data set [7], 400 nM. Further, the binding signal in data set [5] is ~2 fold weaker than MSI1 on mono-UAG. For UUUUUUUUUUUUUUUU (ssRNA) [polyU FP RNA], the binding result in data set [1] is given as “no binding”.

As a reminder, the Kd is the constant that tells how readily two partners part at equilibrium. Read a low Kd as higher affinity.
